Here are results for 32 molecules from patent US20260274955A1 (JANUX THERAPEUTICS, published 2026).

Assay [1] concerns the target anti-CD28 Fab (SEQ ID NOs: 202, 203). The experiment in a line: phage binding ELISA; biotinylated anti-CD28 Fab captured on neutravidin plate, clonal phage supernatant, anti-M13-HRP detection.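 Note: before crude clonal phage supernatants were added, wells were preincubated with CD28 antigen in blocking buffer or with blocking buffer only.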
Target sequence in this assay (VH, as listed by the source, chain 1 of 2): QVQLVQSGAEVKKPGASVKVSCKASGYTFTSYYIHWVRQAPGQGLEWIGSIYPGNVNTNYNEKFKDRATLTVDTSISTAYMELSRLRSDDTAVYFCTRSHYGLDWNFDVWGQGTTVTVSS
Target sequence in this assay (VL, as listed by the source, chain 2 of 2): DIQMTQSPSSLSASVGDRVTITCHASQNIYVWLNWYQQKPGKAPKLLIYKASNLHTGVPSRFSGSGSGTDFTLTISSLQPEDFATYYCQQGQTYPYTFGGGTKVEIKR
Method: (§1) After panning, phage infected bacteria were plated out and colonies picked into 96 well blocks. Clonal phage was then amplified and separated from bacterial cells via centrifugation.
(§2) Clonal phage were harvested as crude supernatants and screened via standard ELISAs. […] Prior to the addition of clonal phage, wells were incubated with blocking buffer and CD28 antigen or blocking buffer alone. Without washing or aspirating, clonal phage supernatants were then added to the wells and incubated for a short time. Wells were then washed followed by detection of bound phage using a horse radish conjugated anti-M13 antibody. Clonal phage of interest were then sent for sequence analysis.
The target is the same in assay [2]. Briefly: phage binding ELISA; captured anti-CD28 Fab pre-incubated with CD28 antigen as competitor, anti-M13-HRP detection.
Target sequence in this assay (VH, as listed by the source, chain 1 of 2): as the sequence (VH, as listed by the source, chain 1 of 2) above
Target sequence in this assay (VL, as listed by the source, chain 2 of 2): as the sequence (VL, as listed by the source, chain 2 of 2) above
Method: as §1, §2
Assay [3] deals with T1, anti-CD28 Fab (SEQ ID NOs: 202, 203).
T1 construct: biotinylated and captured on neutravidin coated plates in the phage ELISA
Briefly: phage binding ELISA on captured biotinylated Fab.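 Note: clonal phage supernatants added to wells preincubated with CD28 antigen or blocking buffer only, bound phage detected by ELISA with horseradish-conjugated anti-M13 antibody.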
T1 sequence (VH, as listed by the source, chain 1 of 2): as the sequence (VH, as listed by the source, chain 1 of 2) above
T1 sequence (VL, as listed by the source, chain 2 of 2): as the sequence (VL, as listed by the source, chain 2 of 2) above
Method: as §1, §2

Assay [4] has the same target. Briefly: phage binding ELISA on captured Fab, competitor CD28 antigen.
Target sequence in this assay (VH, as listed by the source, chain 1 of 2): as the sequence (VH, as listed by the source, chain 1 of 2) above
Target sequence in this assay (VL, as listed by the source, chain 2 of 2): as the sequence (VL, as listed by the source, chain 2 of 2) above
Method: as §1, §2
Assay [5] concerns the target T2, anti-CD28 Fab (SEQ ID NOs: 202, 203).
T2 construct: biotinylated when captured in the phage ELISAs
Briefly: binding ELISA, peptide captured, anti-CD28 Fab titrated.
T2 sequence (VH, as listed by the source, chain 1 of 2): as the sequence (VH, as listed by the source, chain 1 of 2) above
T2 sequence (VL, as listed by the source, chain 2 of 2): as the sequence (VL, as listed by the source, chain 2 of 2) above

No end group written: not given here.

On to TCAAGATYDWPSCL [Phage-1247], for which the “Anti-CD28 Fab (SEQ ID NOs: 202, 203) signal” value in assay [1] is 0.71. In addition, the “Anti-CD28 Fab signal in the presence of CD28” value (“Anti-CD28 Fab signal” for short) in assay [2] is 0.08. On to MCAAGFHYPWPACL [Phage-927], for which the “Anti-CD28 Fab (SEQ ID NOs: 202, 203) signal” value in assay [3] came to 2.23. Also, in assay [4], the “Anti-CD28 Fab signal” value was determined as 0.1. Consider RCSAGFHYPLSLCL [Phage-933], for which the “Anti-CD28 Fab (SEQ ID NOs: 202, 203) signal” value in assay [3] was found to be 2.18. For the same molecule, the “Anti-CD28 Fab signal” value in assay [4] was 0.06. Regarding DCWWDSPYHWRVCL [Phage-1256], the “Anti-CD28 Fab (SEQ ID NOs: 202, 203) signal” value in assay [1] was 0.57. In addition, in assay [2], the “Anti-CD28 Fab signal” value worked out at 0.07. TCSAGAQWEWPACL [Phage-1253]: the “Anti-CD28 Fab (SEQ ID NOs: 202, 203) signal” value in assay [1] amounted to 0.67. The “Anti-CD28 Fab signal” value in assay [2] was found to be 0.08. For ICAAGAGWPWPWCL [Phage-1245], the “Anti-CD28 Fab (SEQ ID NOs: 202, 203) signal” value in assay [1] is 0.75. Moreover, the “Anti-CD28 Fab signal” value in assay [2] worked out at 0.1.

As for GCAAGFHYTLSTCL [Phage-1259], the “Anti-CD28 Fab (SEQ ID NOs: 202, 203) signal” value in assay [1] came to 0.42. The “Anti-CD28 Fab signal” value in assay [2] amounted to 0.05. Consider SCGGGFHYSWPLCF [Phage-1258], for which the “Anti-CD28 Fab (SEQ ID NOs: 202, 203) signal” value in assay [1] stood at 0.55. For the same molecule, the “Anti-CD28 Fab signal” value in assay [2] amounted to 0.15.

For NCSAGATYPWPLCL [Phage-934], the “Anti-CD28 Fab (SEQ ID NOs: 202, 203) signal” value in assay [3] came out at 2.17. For the same molecule, the “Anti-CD28 Fab signal” value in assay [4] amounted to 0.07. SCAAGAGYGWPQCL [Phage-1257]: the “Anti-CD28 Fab (SEQ ID NOs: 202, 203) signal” value in assay [1] was determined as 0.55. The “Anti-CD28 Fab signal” value in assay [2] was found to be 0.13. With TCAAGAAYTWPHCF [Phage-1252], in assay [1], the “Anti-CD28 Fab (SEQ ID NOs: 202, 203) signal” value was 0.69. Besides, the “Anti-CD28 Fab signal” value in assay [2] came to 0.11. For WCSAVFSYQWPVCL [Phage-1254], in that order: 0.61 and 0.06. For TCAAGAVWQWPTCF [Phage-1248], in that order: 0.71 and 0.06. In the case of TCAAGAHYPWPACL (cysteine pairing not given here; also: biotinylated, site not given here) [Peptide-106], the EC50 in assay [5] was found to be 4.2 nM. Consider TCAAGAQLEWPWCF [Phage-1250], for which the “Anti-CD28 Fab (SEQ ID NOs: 202, 203) signal” value in assay [1] stood at 0.7. Moreover, in assay [2], the “Anti-CD28 Fab signal” value amounted to 0.07. As for ECSAGAMWGWPACF [Phage-1246], the “Anti-CD28 Fab (SEQ ID NOs: 202, 203) signal” value in assay [1] was determined as 0.73. Also, the “Anti-CD28 Fab signal” value in assay [2] is 0.09. For the molecule MCSAGANWPWPLCF [Phage-932], the “Anti-CD28 Fab (SEQ ID NOs: 202, 203) signal” value in assay [3] was determined as 2.18. In assay [4], the “Anti-CD28 Fab signal” value stood at 0.07.

In the case of TCAAGAAYPWPLCF [Phage-930], the “Anti-CD28 Fab (SEQ ID NOs: 202, 203) signal” value in assay [3] is 2.18. Moreover, in assay [4], the “Anti-CD28 Fab signal” value was found to be 0.11. As to PCSAGATYAWPYCL [Phage-1249], the “Anti-CD28 Fab (SEQ ID NOs: 202, 203) signal” value in assay [1] turned out to be 0.71. Also, the “Anti-CD28 Fab signal” value in assay [2] was 0.09. For the molecule TCAAGANWEWPWCF [Phage-928], the “Anti-CD28 Fab (SEQ ID NOs: 202, 203) signal” value in assay [3] was 2.22. Further, the “Anti-CD28 Fab signal” value in assay [4] stood at 0.08. In assay [5], TCSAGAHYPWPICL (cysteine pairing not given here; also: biotinylated, site not given here) [Peptide-102] returned an EC50 of 10.6 nM. On to SCSAGASYAWPMCI [Phage-1255], for which, in assay [1], the “Anti-CD28 Fab (SEQ ID NOs: 202, 203) signal” value came out at 0.59. In addition, the “Anti-CD28 Fab signal” value in assay [2] is 0.06. For TCSAGATYKWPMCF [Phage-1243] the same measures were 0.77 and 0.07.

Turning to TCSAGATYTWSKCF [Phage-939], the “Anti-CD28 Fab (SEQ ID NOs: 202, 203) signal” value in assay [3] was determined as 2.15. In assay [4], the “Anti-CD28 Fab signal” value amounted to 0.06. On to TCSAGATYTWPWCF [Phage-941], for which the “Anti-CD28 Fab (SEQ ID NOs: 202, 203) signal” value in assay [3] was found to be 2.14. The “Anti-CD28 Fab signal” value in assay [4] was determined as 0.07.

For the molecule TCSAGATYGWPACF [Phage-1244], the “Anti-CD28 Fab (SEQ ID NOs: 202, 203) signal” value in assay [1] is 0.76. In addition, in assay [2], the “Anti-CD28 Fab signal” value was determined as 0.07.

Molecule TCSAGATWAWPLCF (cysteine pairing not given here; also: biotinylated, site not given here) [Peptide-104] gave an EC50 in assay [5] of 15.6 nM. On to SCSAGAAYYWPWCL (cysteine pairing not given here; also: biotinylated, site not given here) [Peptide-103], for which, in assay [5], the EC50 was 112 nM. In the case of GCAAGAEYNWPTCL [Phage-1251], the “Anti-CD28 Fab (SEQ ID NOs: 202, 203) signal” value in assay [1] was 0.69. Moreover, the “Anti-CD28 Fab signal” value in assay [2] came to 0.64. Turning to TCAAGATYAWPYCV [Phage-929], the “Anti-CD28 Fab (SEQ ID NOs: 202, 203) signal” value in assay [3] amounted to 2.21. Moreover, in assay [4], the “Anti-CD28 Fab signal” value was found to be 0.09.

TCSAGASNKLSLCL [Phage-931]: the “Anti-CD28 Fab (SEQ ID NOs: 202, 203) signal” value in assay [3] was 2.18. Further, the “Anti-CD28 Fab signal” value in assay [4] was 0.06. Molecule TCAAGATYLWPTCL (cysteine pairing not given here; also: biotinylated, site not given here) [Peptide-105] registered an EC50 in assay [5] of 20.5 nM.
